Patent US20060110789

Columns and labels:
[1] = target: diketide-ACP4(4) (DEBS ACP4 with its natural C-terminal linker, loaded with diketide) (UniProt Q03132)
[2] = target: diketide-ACP4(Ø) (DEBS ACP4 without linker, loaded with diketide) (UniProt Q03132)
[3] = target: diketide-ACP2(2) (DEBS ACP2 with its natural C-terminal linker, loaded with diketide) (UniProt Q03131)
[4] = target: diketide-ACP2(4) (DEBS ACP2 with the C-terminal linker of module 4, loaded with diketide) (UniProt Q03131)
[5] = target: DEBS-2 (UniProt Q03132)

(3)M5+TE (module 5 of DEBS with the N-terminal linker of module 3, fused to thioesterase)
kcat/KM, fold decrease against the matched reaction (FIG. 28 B) [1]: fell approximately 20-fold and 150-fold, respectively | triketide lactone formation at 20 µM substrate (FIG. 28 B) [1]: transfer of diketide from the donor ACP to the acceptor module occurred at 20 µM substrate concentration | kcat/KM (FIG. 29 B) [2]: 41.7 M⁻¹ s⁻¹

(5)M5+TE (module 5 of DEBS with its own N-terminal linker, fused to thioesterase)
triketide lactone formation at 20 µM substrate (FIG. 28 D) [3]: no product was detected at the same substrate concentrations | kcat/KM, fold decrease against the matched reaction (FIG. 28 C) [4]: fell approximately 20-fold and 150-fold, respectively | triketide lactone formation at 20 µM substrate (FIG. 28 C) [4]: transfer of diketide from the donor ACP to the acceptor module occurred at 20 µM substrate concentration | conversion of acyl-ACP into triketide lactone in 1 h (20 µM 4, 1 µM (5)M5+TE) [1]: 70% of the acyl-ACP was converted into triketide lactone in 1 h | elongation rate constant (kcat) with 4b, fold increase against the NAC thioester 2b [1]: the elongation rate constant (kcat) increases at least 25-fold | k60 µM (printed there as kcat/KM) [1]: kcat/KM values of 1.4 min-1 and 9.3 min^-1 | kcat/KM [1]: kcat/KM values of 390 min^-1 mM^-1 and 290 min^-1mM^-1 | triketide lactone formation at 20 µM substrate (FIG. 28 A) [1]: transfer of diketide from the donor ACP to the acceptor module occurred at 20 µM substrate concentration | kcat/KM (FIG. 29 A) [2]: 68.3 M⁻¹ s⁻¹

(5)M6+TE (module 6 of DEBS with the N-terminal linker of module 5, with thioesterase)
kcat/KM, fold decrease against diketide-ACP4(4) with the same module [2]: the kcat/KM values drop approximately 70-300 fold

ery M1-RAL rifM5+ERL
6-dEB production on co-transformation in S. coelicolor (with DEBS-3) [5]: Yes (dEB6)
